Measurements reported in patent US20160116473A1 (KOREA INSTITUTE OF RADIOLOGICAL AND MEDICAL SCIENCES, published 2016).

Molecular target: T1, Signal transducer and activator of transcription 3 (STAT3) (human, UniProt P40763 2-770)
T1 construct: Endogenous protein in cell lysates (co-immunoprecipitation) or in fixed cells and tissues (PLA)
Experiment: co-immunoprecipitation from Hep-2 and RR-Hep-2 cell lysates, immunoblot
Protocol: Cells were lysed with nonyl phenoxypolyethoxylethanol-40 (NP-40), and the lysates were then precipitated with a negative control mouse antibody (Santa Cruz Biotechnology Inc.) or a mouse monoclonal antibody against ERp57 (Santa Cruz Biotechnology Inc.). Afterwards, immune complexes were collected using protein G-Sepharose and washed 3 times, and SDS sample buffer was added thereto. The samples were size-fractionated by electrophoresis.

T1 sequence (P40763 2-770 limits assumed): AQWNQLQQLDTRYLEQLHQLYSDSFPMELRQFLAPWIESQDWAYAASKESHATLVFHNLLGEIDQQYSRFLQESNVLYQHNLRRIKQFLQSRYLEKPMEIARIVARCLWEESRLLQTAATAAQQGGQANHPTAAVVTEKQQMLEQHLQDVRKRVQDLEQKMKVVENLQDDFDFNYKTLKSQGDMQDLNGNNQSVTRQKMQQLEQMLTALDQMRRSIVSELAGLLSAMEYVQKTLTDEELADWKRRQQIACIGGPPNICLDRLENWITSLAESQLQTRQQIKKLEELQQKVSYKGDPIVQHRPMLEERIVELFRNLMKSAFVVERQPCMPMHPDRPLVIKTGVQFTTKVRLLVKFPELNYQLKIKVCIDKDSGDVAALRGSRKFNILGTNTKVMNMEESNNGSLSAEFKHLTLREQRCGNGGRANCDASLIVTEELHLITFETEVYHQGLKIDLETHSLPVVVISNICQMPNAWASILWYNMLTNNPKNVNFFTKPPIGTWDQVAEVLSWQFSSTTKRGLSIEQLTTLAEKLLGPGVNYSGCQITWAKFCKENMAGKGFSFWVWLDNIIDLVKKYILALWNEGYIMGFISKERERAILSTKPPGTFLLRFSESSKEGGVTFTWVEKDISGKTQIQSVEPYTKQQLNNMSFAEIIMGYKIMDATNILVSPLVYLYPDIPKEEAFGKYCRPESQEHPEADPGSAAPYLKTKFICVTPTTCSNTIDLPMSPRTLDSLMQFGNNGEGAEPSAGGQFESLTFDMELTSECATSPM

- binding result: binds
B1: ERp57 (enzyme, human, UniProt P30101 25-505, looked up)
chain: SDVLELTDDNFESRISDTGSAGLMLVEFFAPWCGHCKRLAPEYEAAATRLKGIVPLAKVDCTANTNTCNKYGVSGYPTLKIFRDGEEAGAYDGPRTADGIVSHLKKQAGPASVPLRTEEEFKKFISDKDASIVGFFDDSFSEAHSEFLKAASNLRDNYRFAHTNVESLVNEYDDNGEGIILFRPSHLTNKFEDKTVAYTEQKMTSGKIKKFIQENIFGICPHMTEDNKDLIQGKDLLIAYYDVDYEKNAKGSNYWRNRVMMVAKKFLDAGHKLNFAVASRKTFSHELSDFGLESTAGEIPVVAIRTAKGEKFVMQEEFSRDGKALERFLQDYFDGNLKRYLKSEPIPESNDGPVKVVVAENFDEIVNNENKDVLIEFYAPWCGHCKNLEPKYKELGEKLSKDPNIVIAKMDATANDVPSPYEVRGFPTIYFSPANKKLNPKKYEGGRELSDFISYLQREATNPPVIQEEKPKKKKKAQEDL
notes: Endogenous protein in cell lysates (co-immunoprecipitation) or in fixed cells and tissues (PLA); also called protein disulfide isomerase family A member 3; PDIA3
